Reference: patent US20190144529A1 (UCB, published 2019)
Residue numbers refer to the chain shown, from its start. Values joined by “and” are separate entries in the source; they are usually repeats but may differ in a detail not shown here. Equal values may be shown once. Read-outs that look alike come from different tables or passages of the source. Values belong to the binder of their own block, whether it stands above or below them.

Columns and labels:
human serum albumin [1] = biological target: T1, human serum albumin (human, UniProt P02768 25-609); test: SPR, rabbit Fab
T1 construct: mature; Bought purified serum albumin; also called HSA; Human albumin

mouse serum albumin [2] = biological target: T2, mouse serum albumin (mouse, UniProt P07724 25-608); test: SPR, rabbit Fab
T2 construct: mature; Bought purified serum albumin; also called MSA; Mouse albumin

rat serum albumin [3] = biological target: T3, rat serum albumin (rat, UniProt P02770 25-608); test: FMAT, B cell supernatant
T3 construct: mature; Bought purified serum albumin; also called RSA; Rat albumin

mouse serum albumin [4] = biological target: T2, mouse serum albumin; test: SPR
Method: (§1) For analysis at pH 7.0, 6.0, 5.5 and 5.0, a running buffer of 40 mM citric acid, 80 mM sodium phosphate 50 mM NaCl, 3 mM EDTA, 0.05% v/v P20 was used. The required pH was achieved by altering the ratio of citric acid to sodium phosphate. All experiments were performed at 25° C. The antibody samples were captured to the sensor chip surface using either a human F(ab′)₂-specific or human Fc-specific goat Fab (Jackson ImmunoResearch). Covalent immobilisation of the capture antibody was achieved by standard amine coupling chemistry to a level of 6000-7000 response units (RU).
(§2) Each assay cycle consisted of firstly capturing the antibody sample using a 1 min injection, before an association phase consisting of a 3 min injection of albumin, after which dissociation was monitored. After each cycle, the capture surface was regenerated with two 1 min injections of 40 mM HCl followed by 30 s of 5 mM NaOH. The flow rates used were 10 μl/min for capture, 30 μl/min for both the association and dissociation phases, and 10 μl/min for regeneration. A blank flow-cell was used for reference subtraction and buffer-blank injections were included to subtract instrument noise and drift.

rat serum albumin [5] = biological target: T3, rat serum albumin; test: SPR
Method: as §1, §2

rabbit serum albumin [6] = biological target: T4, rabbit serum albumin (rabbit, UniProt P49065 25-608); test: SPR
T4 construct: mature; Bought purified serum albumin; also called RbSA; Rabbit albumin
Method: as §1, §2

human serum albumin [7] = biological target: T1, human serum albumin; test: SPR at pH 5.0
Method: as §1, §2

human serum albumin [8] = biological target: T1, human serum albumin; test: SPR at pH 5.5
human serum albumin [9] = biological target: T1, human serum albumin; test: SPR at pH 6.0
Method: as §1, §2

human serum albumin [10] = biological target: T1, human serum albumin; test: SPR at pH 7.0
Method: as §1, §2

human serum albumin [11] = biological target: T1, human serum albumin; test: SPR, Fab captured, HSA
Method: as §1, §2

human serum albumin [12] = biological target: T1, human serum albumin; test: SPR, Fab captured, albumin titrated
Method: as §1, §2

mouse serum albumin [13] = biological target: T2, mouse serum albumin; test: SPR, Fab captured, albumin titrated
Method: as §1, §2

rat serum albumin [14] = biological target: T3, rat serum albumin; test: SPR, Fab captured, albumin titrated
Method: as §1, §2

cynomolgus serum albumin = biological target: T5, cynomolgus serum albumin (cynomolgus, UniProt A2V9Z4 25-608); test: SPR, Fab captured, albumin titrated
T5 construct: mature; Bought purified serum albumin; also called CSA; Cynomolgus albumin
Method: as §1, §2

rabbit serum albumin [15] = biological target: T4, rabbit serum albumin; test: SPR, Fab captured, albumin titrated
Method: as §1, §2

bovine serum albumin = biological target: T6, bovine serum albumin (bovine, UniProt P02769 25-607); test: SPR, Fab captured, albumin titrated
T6 construct: mature; Bought purified serum albumin; also called BSA; Bovine albumin
Method: as §1, §2

human serum albumin [16] = biological target: T1, human serum albumin; test: SPR, Fab captured, albumin titrated; remark: listed apart in the source
Method: as §1, §2

mouse serum albumin [17] = biological target: T2, mouse serum albumin; test: SPR, Fab captured, albumin titrated; remark: listed apart in the source
Method: as §1, §2

human serum albumin [18] = biological target: T1, human serum albumin; test: SPR, Fab captured; albumin taken as HSA
Method: as §2

human serum albumin [19] = biological target: T1, human serum albumin; test: SPR, Fab captured; albumin taken as HSA; remark: listed apart in the source
Method: as §2

human serum albumin [20] = biological target: T1, human serum albumin; test: SPR, Fab captured; albumin taken as HSA; remark: listed apart in the source
Method: as §2

human serum albumin [21] = biological target: T1, human serum albumin; test: SPR, humanized IgG1
Method: as §1, §2

mouse serum albumin [22] = biological target: T2, mouse serum albumin; test: SPR, humanized IgG1
Method: as §1, §2

rat serum albumin [23] = biological target: T3, rat serum albumin; test: SPR, humanized IgG1
Method: as §1, §2

human serum albumin [24] = biological target: T1, human serum albumin; test: SPR, HSA
Method: as §1, §2

B1: CA645 recombinant rabbit Fab (Fab, V domains shown)
VH: QSLEESGGRLVTPGTPLTLTCTVSGIDLSNYAINWVRQAPGKGLEWIGIIWASGTTFYATWAKGRFTISRPSTTVDLEMTSLTTADTATYFCARTVPGYSTAPYFDLWGPGTLVTVSS
VL: AAVLTQTPSPVSAAVGGTVTINCQSSPSVWSNFLSWYQQKPGQPPKLLIYEASKLTSGVPSRFKGSGSGTQFTLTISDVQCGDAATYYCGGGYSSISDTTFGGGTKVVVK
notes: Fab with rabbit heavy CH1 and rabbit light chain constant region
Kd (human serum albumin [1]): 0.31 nM
Kd (mouse serum albumin [2]): 2.6 nM

B2: CA645 rabbit antibody secreted in B cell supernatant (antibody, V domains shown)
VH: B1 VH
VL: B1 VL
notes: Rabbit IgG secreted by cultured B cells
fold difference of binding level to RSA against HSA (rat serum albumin [3]): ≤ 5 fold

B3: CA645 gL4gH5 Fab (Fab, V domains shown)
VH: EVQLLESGGGLVQPGGSLRLSCAVSGIDLSNYAINWVRQAPGKGLEWIGIIWASGTTFYATWAKGRFTISRDNSKNTVYLQMNSLRAEDTAVYYCARTVPGYSTAPYFDLWGQGTLVTVSS
VL: DIQMTQSPSSVSASVGDRVTITCQSSPSVWSNFLSWYQQKPGKAPKLLIYEASKLTSGVPSRFSGSGSGTDFTLTISSLQPEDFATYYCGGGYSSISDTTFGGGTKVEIK
notes: Humanized Fab: human gamma1 CH1, human kappa constant region (Km3); parent of all mutants; also called CA645 Fab; Fab_645
fold weaker affinity for MSA than for HSA (mouse serum albumin [4]): 1.2 fold
fold lower affinity for RSA than for HSA (rat serum albumin [5]): ~10 fold
fold reduction in association rate for RbSA against HSA (rabbit serum albumin [6]): 18 fold
Kd (human serum albumin [7]): 7.1 nM
Kd (human serum albumin [8]): 10.7 nM
Kd (human serum albumin [9]): 12.5 nM
Kd (human serum albumin [10]): 13.3 nM
Kd (human serum albumin [11]): 1.23 nM
koff (human serum albumin [11]): 0.000172 s⁻¹
kon (human serum albumin [11]): 139000 M⁻¹ s⁻¹
Kd (human serum albumin [12]): 4.6 nM
koff (human serum albumin [12]): 0.00041 s⁻¹
kon (human serum albumin [12]): 90000 M⁻¹ s⁻¹
Kd (mouse serum albumin [13]): 7.1 nM
koff (mouse serum albumin [13]): 0.00034 s⁻¹
kon (mouse serum albumin [13]): 48000 M⁻¹ s⁻¹
Kd (rat serum albumin [14]): 54 nM
koff (rat serum albumin [14]): 0.0013 s⁻¹
kon (rat serum albumin [14]): 24000 M⁻¹ s⁻¹
Kd (cynomolgus serum albumin): 3.3 nM
koff (cynomolgus serum albumin): 0.00035 s⁻¹
kon (cynomolgus serum albumin): 100000 M⁻¹ s⁻¹
Kd (rabbit serum albumin [15]): 162 nM
koff (rabbit serum albumin [15]): 0.00029 s⁻¹
kon (rabbit serum albumin [15]): 2000 M⁻¹ s⁻¹
binding result (bovine serum albumin): no binding
Kd (human serum albumin [16]): 1.8 nM
koff (human serum albumin [16]): 0.0004 s⁻¹
kon (human serum albumin [16]): 220000 M⁻¹ s⁻¹
Kd (mouse serum albumin [17]): 2.2 nM
koff (mouse serum albumin [17]): 0.00068 s⁻¹
kon (mouse serum albumin [17]): 310000 M⁻¹ s⁻¹
Kd (human serum albumin [18]): 2.14 nM and 2.51 nM
koff (human serum albumin [18]): 0.000123 s⁻¹ and 0.00014 s⁻¹
kon (human serum albumin [18]): 57500 M⁻¹ s⁻¹ and 56000 M⁻¹ s⁻¹
Kd (human serum albumin [19]): 2.72 nM and 2.7 nM
koff (human serum albumin [19]): 0.000161 s⁻¹ and 0.000158 s⁻¹
kon (human serum albumin [19]): 59100 M⁻¹ s⁻¹ and 58600 M⁻¹ s⁻¹
Kd (human serum albumin [20]): 2.97 nM and 3.8 nM
koff (human serum albumin [20]): 0.000167 s⁻¹ and 0.000211 s⁻¹
kon (human serum albumin [20]): 56200 M⁻¹ s⁻¹ and 55700 M⁻¹ s⁻¹

B4: CA645 humanized IgG1 (conservative graft gL1gH1) (antibody, V domains shown)
VH: EVQLLESGGGLVQPGGSLRLSCAVSGIDLSNYAINWVRQAPGKGLEWIGIIWASGTTFYATWAKGRFTISRDSTTVYLQMNSLRAEDTAVYYCARTVPGYSTAPYFDLWGQGTLVTVSS
VL: B3 VL with Q3V, S64K
notes: Human IgG1, full human gamma1 constant region, human kappa constant region (Km3 allotype); also called CA645 gL1gH1
Kd (human serum albumin [21]): 0.82 nM
Kd (mouse serum albumin [22]): 2.9 nM
Kd (rat serum albumin [23]): 7.9 nM

B6: CA645 gL29gH5 Fab (Fab, V domains shown)
VH: B3 VH
VL: B3 VL with S68V
notes: Fab: human gamma1 CH1, human kappa (Km3); Kabat numbering
Kd (human serum albumin [20]): 1.78 nM
koff (human serum albumin [20]): 0.000103 s⁻¹
kon (human serum albumin [20]): 57700 M⁻¹ s⁻¹

B8: CA645 gL5gH5 Fab (Fab, V domains shown)
VH: B3 VH
VL: B3 VL with W30A
notes: as for B6
fold weaker affinity for MSA than for HSA (mouse serum albumin [4]): 1.2 fold
fold weaker affinity than gL4gH5 (human serum albumin [24]): 368 fold
Kd (human serum albumin [11]): 453 nM
koff (human serum albumin [11]): 0.0571 s⁻¹
kon (human serum albumin [11]): 126000 M⁻¹ s⁻¹
Kd (human serum albumin [16]): 254 nM
koff (human serum albumin [16]): 0.022 s⁻¹
kon (human serum albumin [16]): 85000 M⁻¹ s⁻¹
Kd (mouse serum albumin [17]): 316 nM
koff (mouse serum albumin [17]): 0.0038 s⁻¹
kon (mouse serum albumin [17]): 12000 M⁻¹ s⁻¹

B10: CA645 gL31gH5 Fab (Fab, V domains shown)
VH: B3 VH
VL: B3 VL with S68T
notes: as for B6
Kd (human serum albumin [20]): 2.49 nM
koff (human serum albumin [20]): 0.000142 s⁻¹
kon (human serum albumin [20]): 57200 M⁻¹ s⁻¹

Further lines, results first:

Kd (human serum albumin [20]): 3.32 nM
koff (human serum albumin [20]): 0.000179 s⁻¹
kon (human serum albumin [20]): 54000 M⁻¹ s⁻¹
B5: CA645 gL33gH5 Fab (Fab, V domains shown)
VH: B3 VH
VL: B3 VL with S68E
notes: as for B6

Kd (human serum albumin [20]): 1.85 nM
koff (human serum albumin [20]): 0.000109 s⁻¹
kon (human serum albumin [20]): 59000 M⁻¹ s⁻¹
B7: CA645 gL28gH5 Fab (Fab, V domains shown)
VH: B3 VH
VL: B3 VL with S68L
notes: as for B6

Kd (human serum albumin [20]): 2.44 nM
koff (human serum albumin [20]): 0.000143 s⁻¹
kon (human serum albumin [20]): 58600 M⁻¹ s⁻¹
B9: CA645 gL32gH5 Fab (Fab, V domains shown)
VH: B3 VH
VL: B3 VL with S68Q
notes: as for B6

Kd (human serum albumin [20]): 1.61 nM
koff (human serum albumin [20]): 9.4e-05 s⁻¹
kon (human serum albumin [20]): 58400 M⁻¹ s⁻¹
B11: CA645 gL30gH5 Fab (Fab, V domains shown)
VH: B3 VH
VL: B3 VL with S68I
notes: as for B6
